Measured values reported in the supplement of paper PMC9112550, “Optimization of the antimicrobial peptide Bac7 by deep mutational scanning” (BMC Biology, 2022).

What follows are sequences tested on Escherichia coli TOP10 (assay: shrunken log2 fold change of peptide-encoding DNA abundance (4.5 h post-induction vs induction); higher = less antimicrobial activity (less host growth inhibition)). Settings: time post-induction: 4.5 h; library: site-saturation at positions 5, 18, 19, 20.
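Further: peptides expressed intracellularly from a pBAD plasmid library in pooled LB shake-flask culture, induced with 0.3% L-arabinose, DNA abundance read by NGS, three biological replicates, DESeq2 with apeglm shrinkage.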

RRIRSRPPRLPRPRPRPQRWPRP and RRIRKRPPRLPRPRPRPPQHPRP are within 0.2 log units of each other in “shrunken log2 fold change” value: 0.319 for the first, 0.5 for the second.

Compared with RRIRDRPPRLPRPRPRPHWQPRP, RRIRFRPPRLPRPRPRPGGCPRP is higher in “shrunken log2 fold change” value: -0.149 for the first, 0.432 for the second.

RRIRTRPPRLPRPRPRPKKMPRP and RRIRMRPPRLPRPRPRPWEHPRP are within 0.2 log units of each other in “shrunken log2 fold change” value: 0.0999 for the first, 0.0244 for the second.

RRIRFRPPRLPRPRPRPRKLPRP and RRIRQRPPRLPRPRPRPQERPRP are within 0.2 log units of each other in “shrunken log2 fold change” value: 0.134 for the first, -0.00247 for the second.

Going from RRIRVRPPRLPRPRPRPVMSPRP to RRIRWRPPRLPRPRPRPEMYPRP, the “shrunken log2 fold change” value rises from -0.213 to 0.144.

RRIRARPPRLPRPRPRPIWIPRP and RRIRMRPPRLPRPRPRPVTVPRP are within 0.2 log units of each other in “shrunken log2 fold change” value: 0.123 for the first, 0.0436 for the second.

Compared with RRIRERPPRLPRPRPRPAFWPRP, RRIRRRPPRLPRPRPRPAQWPRP is higher in “shrunken log2 fold change” value: 0.632 for the first, 0.912 for the second.

RRIRMRPPRLPRPRPRPVWMPRP and RRIRARPPRLPRPRPRPYNLPRP are within 0.2 log units of each other in “shrunken log2 fold change” value: 0.169 for the first, -0.00894 for the second.

RRIRGRPPRLPRPRPRPKEWPRP and RRIRHRPPRLPRPRPRPEMPPRP are within 0.2 log units of each other in “shrunken log2 fold change” value: -0.00523 for the first, -0.177 for the second.

RRIRERPPRLPRPRPRPDLIPRP and RRIRSRPPRLPRPRPRPNPFPRP are within 0.2 log units of each other in “shrunken log2 fold change” value: -0.0979 for the first, -0.236 for the second.

RRIRPRPPRLPRPRPRPYESPRP and RRIRCRPPRLPRPRPRPDPEPRP are within 0.2 log units of each other in “shrunken log2 fold change” value: -0.186 for the first, -0.0407 for the second.

RRIRVRPPRLPRPRPRPNGFPRP and RRIRYRPPRLPRPRPRPCDTPRP are within 0.2 log units of each other in “shrunken log2 fold change” value: -0.0486 for the first, -0.0977 for the second.

First: RRIRGRPPRLPRPRPRPCFGPRP
Second: RRIRLRPPRLPRPRPRPAHFPRP
The “shrunken log2 fold change” value of the first is higher: 0.262 for the first, -0.197 for the second.

First: RRIRDRPPRLPRPRPRPFYHPRP
Second: RRIRGRPPRLPRPRPRPFPPPRP
The “shrunken log2 fold change” value of the first is lower: -0.124 for the first, 0.378 for the second.

First: RRIRQRPPRLPRPRPRPYLFPRP
Second: RRIRLRPPRLPRPRPRPWEDPRP
The “shrunken log2 fold change” value of the first is lower: -0.509 for the first, 0.0824 for the second.

RRIRDRPPRLPRPRPRPVKDPRP and RRIRYRPPRLPRPRPRPVCYPRP are within 0.2 log units of each other in “shrunken log2 fold change” value: -0.173 for the first, -0.209 for the second.

Going from RRIRYRPPRLPRPRPRPYTAPRP to RRIRQRPPRLPRPRPRPYLTPRP, the “shrunken log2 fold change” value falls from 0.00143 to -0.209.

First: RRIRSRPPRLPRPRPRPIWTPRP
Second: RRIRHRPPRLPRPRPRPWSCPRP
The “shrunken log2 fold change” value of the first is lower: -0.254 for the first, -0.0195 for the second.

First: RRIRNRPPRLPRPRPRPHRQPRP
Second: RRIRFRPPRLPRPRPRPMRLPRP
The “shrunken log2 fold change” value of the first is lower: -0.0962 for the first, 0.947 for the second.

RRIRARPPRLPRPRPRPGLHPRP and RRIRLRPPRLPRPRPRPTHDPRP are within 0.2 log units of each other in “shrunken log2 fold change” value: 0.275 for the first, 0.324 for the second.

Going from RRIRDRPPRLPRPRPRPWVEPRP to RRIRWRPPRLPRPRPRPWGHPRP, the “shrunken log2 fold change” value falls from 0.105 to -0.404.

Going from RRIRHRPPRLPRPRPRPEICPRP to RRIRFRPPRLPRPRPRPRKVPRP, the “shrunken log2 fold change” value rises from -0.00961 to 0.352.

Compared with RRIRKRPPRLPRPRPRPCYRPRP, RRIRGRPPRLPRPRPRPQRIPRP is higher in “shrunken log2 fold change” value: -0.0703 for the first, 0.178 for the second.

RRIRPRPPRLPRPRPRPEHIPRP and RRIRHRPPRLPRPRPRPRKFPRP are within 0.2 log units of each other in “shrunken log2 fold change” value: 0.149 for the first, 0.15 for the second.

First: RRIRHRPPRLPRPRPRPLLLPRP
Second: RRIRIRPPRLPRPRPRPAQPPRP
The “shrunken log2 fold change” value of the first is lower: -0.208 for the first, 0.213 for the second.

RRIRQRPPRLPRPRPRPDMGPRP and RRIRERPPRLPRPRPRPCHTPRP are within 0.2 log units of each other in “shrunken log2 fold change” value: 0.0191 for the first, -0.0292 for the second.

RRIRPRPPRLPRPRPRPKCTPRP and RRIRIRPPRLPRPRPRPWRAPRP are within 0.2 log units of each other in “shrunken log2 fold change” value: -0.0758 for the first, 0.0578 for the second.

Compared with RRIRGRPPRLPRPRPRPTRFPRP, RRIRSRPPRLPRPRPRPYNIPRP is lower in “shrunken log2 fold change” value: 0.19 for the first, -0.579 for the second.

RRIRDRPPRLPRPRPRPPIRPRP and RRIRSRPPRLPRPRPRPMMGPRP are within 0.2 log units of each other in “shrunken log2 fold change” value: 0.173 for the first, 0.0137 for the second.

RRIRGRPPRLPRPRPRPIYLPRP and RRIRMRPPRLPRPRPRPDQFPRP are within 0.2 log units of each other in “shrunken log2 fold change” value: 0.0531 for the first, -0.00541 for the second.

Compared with RRIRQRPPRLPRPRPRPCIGPRP, RRIRIRPPRLPRPRPRPNYKPRP is lower in “shrunken log2 fold change” value: -0.204 for the first, -0.911 for the second.

RRIRFRPPRLPRPRPRPACSPRP and RRIRLRPPRLPRPRPRPNLAPRP are within 0.2 log units of each other in “shrunken log2 fold change” value: 0.0139 for the first, -0.0506 for the second.

First: RRIRVRPPRLPRPRPRPPNLPRP
Second: RRIRTRPPRLPRPRPRPSMQPRP
The “shrunken log2 fold change” value of the first is higher: 0.239 for the first, -0.244 for the second.

RRIRIRPPRLPRPRPRPTYYPRP and RRIRNRPPRLPRPRPRPIDIPRP are within 0.2 log units of each other in “shrunken log2 fold change” value: -0.827 for the first, -0.947 for the second.

First: RRIRARPPRLPRPRPRPVWWPRP
Second: RRIRNRPPRLPRPRPRPWAAPRP
The “shrunken log2 fold change” value of the first is higher: 0.987 for the first, -0.109 for the second.

Compared with RRIRVRPPRLPRPRPRPFEIPRP, RRIRERPPRLPRPRPRPYPEPRP is lower in “shrunken log2 fold change” value: -0.486 for the first, -0.918 for the second.

Going from RRIRSRPPRLPRPRPRPWQEPRP to RRIRSRPPRLPRPRPRPWIIPRP, the “shrunken log2 fold change” value falls from 0.131 to -0.159.

Going from RRIRRRPPRLPRPRPRPCRFPRP to RRIRKRPPRLPRPRPRPVKGPRP, the “shrunken log2 fold change” value rises from -0.0495 to 0.322.

RRIRKRPPRLPRPRPRPSTTPRP and RRIRWRPPRLPRPRPRPRKLPRP are within 0.2 log units of each other in “shrunken log2 fold change” value: 0.162 for the first, 0.133 for the second.

Compared with RRIRFRPPRLPRPRPRPWTRPRP, RRIRSRPPRLPRPRPRPINEPRP is lower in “shrunken log2 fold change” value: -0.0481 for the first, -0.249 for the second.

Going from RRIRCRPPRLPRPRPRPLNGPRP to RRIRKRPPRLPRPRPRPDATPRP, the “shrunken log2 fold change” value rises from -0.444 to 2.81.

First: RRIRERPPRLPRPRPRPPKAPRP
Second: RRIRDRPPRLPRPRPRPWYVPRP
The “shrunken log2 fold change” value of the first is higher: 0.312 for the first, -0.726 for the second.

Going from RRIRKRPPRLPRPRPRPRYEPRP to RRIRARPPRLPRPRPRPLDNPRP, the “shrunken log2 fold change” value falls from 0.362 to 0.151.

RRIRFRPPRLPRPRPRPNCCPRP and RRIRHRPPRLPRPRPRPRLFPRP are within 0.2 log units of each other in “shrunken log2 fold change” value: 0.0101 for the first, 0.164 for the second.

Going from RRIRHRPPRLPRPRPRPPWNPRP to RRIRGRPPRLPRPRPRPPDRPRP, the “shrunken log2 fold change” value rises from -0.0664 to 0.564.

In the case of RRIRVRPPRLPRPRPRPCPNPRP, the “shrunken log2 fold change” value is reported as -0.245.
